Our source for the binding signal values is paper PMC10681739, “High-throughput data and modeling reveal insights into the mechanisms of cooperative DNA-binding by transcription factor proteins”.

The target in the data set is T1, ETS1 (Homo sapiens, UniProt P14921).
T1 sequence: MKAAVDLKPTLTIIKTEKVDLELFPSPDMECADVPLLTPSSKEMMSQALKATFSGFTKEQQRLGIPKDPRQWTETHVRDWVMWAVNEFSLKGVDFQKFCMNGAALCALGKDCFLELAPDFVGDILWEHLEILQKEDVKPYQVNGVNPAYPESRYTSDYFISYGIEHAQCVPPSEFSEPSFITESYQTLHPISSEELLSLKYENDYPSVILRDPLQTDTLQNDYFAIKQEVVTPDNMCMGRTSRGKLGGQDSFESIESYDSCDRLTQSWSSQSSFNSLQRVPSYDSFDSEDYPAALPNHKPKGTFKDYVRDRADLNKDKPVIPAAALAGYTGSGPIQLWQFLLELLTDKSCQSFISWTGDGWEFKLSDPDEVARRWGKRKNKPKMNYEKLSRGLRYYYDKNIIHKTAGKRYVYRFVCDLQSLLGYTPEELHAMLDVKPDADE
Nature of the data set: gcPBM; 1 nM ETS1. The following applies: tags: N-terminal GST (pDEST15), kept (PMC6008103); label: surface-attached array probe.

B1: Table S2 B row 4089 (dsDNA)
DNA 1: GCTGTTTCCTGCTGATAAAAACACCCCTCAACTTCA
DNA 2: TGAAGTTGAGGGGTGTTTTTATCAGCAGGAAACAGC
In the case of B1, the binding signal is 11800 PBM fluorescence, median of replicate spots.

B2: Table S2 C row 170 (dsDNA)
DNA 1: TCCTGAACTATTCACTGTGGTGATGAAATATGCTAA
DNA 2: TTAGCATATTTCATCACCACAGTGAATAGTTCAGGA
For the molecule B2, the binding signal is 432 PBM fluorescence, median of replicate spots.

B3: Table S2 C row 4 (dsDNA)
DNA 1: GAAAGAGCGAAATGTTGCGGTTTAGTTAATGCTTTG
DNA 2: CAAAGCATTAACTAAACCGCAACATTTCGCTCTTTC
As to B3, the binding signal is 442 PBM fluorescence, median of replicate spots.

B4: Table S2 C row 138 (dsDNA)
DNA 1: AGTAGTGCTTTTTCAACCACAGACCAACATTTGAGA
DNA 2: TCTCAAATGTTGGTCTGTGGTTGAAAAAGCACTACT
For the molecule B4, the binding signal was 437 PBM fluorescence, median of replicate spots.

B5: Table S2 B row 185 (dsDNA)
DNA 1: GCCAGGAGGACTTCCGGGTGGGTGTGATATCTGCGA
DNA 2: TCGCAGATATCACACCCACCCGGAAGTCCTCCTGGC
As for B5, the binding signal is 11300 PBM fluorescence, median of replicate spots.

B6: Table S2 C row 154 (dsDNA)
DNA 1: CCGTAATCTTCATAAACCTCAATGCTCAAGGTGCAG
DNA 2: CTGCACCTTGAGCATTGAGGTTTATGAAGATTACGG
Take B6: the binding signal was 438 PBM fluorescence, median of replicate spots.

B7: Table S2 B row 1635 (dsDNA)
DNA 1: GGACAGGAAGTTCCTGCAGCTTCTACCCCAAACCTA
DNA 2: TAGGTTTGGGGTAGAAGCTGCAGGAACTTCCTGTCC
As for B7, the binding signal was 9480 PBM fluorescence, median of replicate spots.

B8: Table S2 C row 3 (dsDNA)
DNA 1: GCGAGAGCAGCAAGAACCACACCCAGCAGCAATGTC
DNA 2: GACATTGCTGCTGGGTGTGGTTCTTGCTGCTCTCGC
Regarding B8, the binding signal is 422 PBM fluorescence, median of replicate spots.

B9: Table S2 B row 4091 (dsDNA)
DNA 1: GGCATTCACTTCCGGTCTGGGGCCTACGGCGGCGGC
DNA 2: GCCGCCGCCGTAGGCCCCAGACCGGAAGTGAATGCC
In the case of B9, the binding signal was 37100 PBM fluorescence, median of replicate spots.

B10: Table S2 C row 176 (dsDNA)
DNA 1: ATATCCACTCAGTAGTGTGGTTTGTAAGGACTAAAT
DNA 2: ATTTAGTCCTTACAAACCACACTACTGAGTGGATAT
On to B10, for which the binding signal is 440 PBM fluorescence, median of replicate spots.

B11: Table S2 C row 38 (dsDNA)
DNA 1: CAATTTAGCCTTTTAACCACTAAACTCCCTTGCCTA
DNA 2: TAGGCAAGGGAGTTTAGTGGTTAAAAGGCTAAATTG
Consider B11, for which the binding signal is 426 PBM fluorescence, median of replicate spots.

B12: Table S2 C row 1 (dsDNA)
DNA 1: CCCTCATCTGAGAACACCACATTTCTCCCTCTGTCA
DNA 2: TGACAGAGGGAGAAATGTGGTGTTCTCAGATGAGGG
For the molecule B12, the binding signal is 436 PBM fluorescence, median of replicate spots.

B13: Table S2 B row 3533 (dsDNA)
DNA 1: CCATTTCCCGCCTACCGACCTGCTGCACCTCACGGA
DNA 2: TCCGTGAGGTGCAGCAGGTCGGTAGGCGGGAAATGG
Regarding B13, the binding signal is 9790 PBM fluorescence, median of replicate spots.

B14: Table S2 B row 2731 (dsDNA)
DNA 1: AGAACCACTTCCTCTCAGTAAATCACAGAGACTGTA
DNA 2: TACAGTCTCTGTGATTTACTGAGAGGAAGTGGTTCT
Turning to B14, the binding signal is 10400 PBM fluorescence, median of replicate spots.

B15: Table S2 C row 119 (dsDNA)
DNA 1: GGAAAGGTTGACGATAGTGGTTAAGTGGCTCGGCCT
DNA 2: AGGCCGAGCCACTTAACCACTATCGTCAACCTTTCC
Consider B15, for which the binding signal is 429 PBM fluorescence, median of replicate spots.

B16: Table S2 C row 22 (dsDNA)
DNA 1: CTTGTTCAAGCAATTTGAGGTTTTTTAGGGAGGTTG
DNA 2: CAACCTCCCTAAAAAACCTCAAATTGCTTGAACAAG
Regarding B16, the binding signal is 428 PBM fluorescence, median of replicate spots.

B17: Table S2 C row 107 (dsDNA)
DNA 1: TGGCTGAGGGTCTTCTGTGGGTGGACGCATGATTAA
DNA 2: TTAATCATGCGTCCACCCACAGAAGACCCTCAGCCA
As to B17, the binding signal is 417 PBM fluorescence, median of replicate spots.

B18: Table S2 C row 27 (dsDNA)
DNA 1: AAAACAAGAACCAAAACCACAAGAACCACAAGAACC
DNA 2: GGTTCTTGTGGTTCTTGTGGTTTTGGTTCTTGTTTT
For the molecule B18, the binding signal was 420 PBM fluorescence, median of replicate spots.

B19: Table S2 B row 741 (dsDNA)
DNA 1: CAACTTCCGGGGCCGGTTGCCTGGCAACAGCAGGAG
DNA 2: CTCCTGCTGTTGCCAGGCAACCGGCCCCGGAAGTTG
For B19, the binding signal was 35000 PBM fluorescence, median of replicate spots.

B20: Table S2 B row 1578 (dsDNA)
DNA 1: GGCTTCCTGCCCAACTACCAAGAAAAAGTCACAAAG
DNA 2: CTTTGTGACTTTTTCTTGGTAGTTGGGCAGGAAGCC
For B20, the binding signal was 12500 PBM fluorescence, median of replicate spots.

B21: Table S2 C row 99 (dsDNA)
DNA 1: ACAAGCATTTGATTCTGTGGGTCCCCAATGTTGGAA
DNA 2: TTCCAACATTGGGGACCCACAGAATCAAATGCTTGT
On to B21, for which the binding signal is 431 PBM fluorescence, median of replicate spots.

B22: Table S2 B row 2131 (dsDNA)
DNA 1: CTACTTTCCGGTCAACGCGGCCTGGGGTACCACCTC
DNA 2: GAGGTGGTACCCCAGGCCGCGTTGACCGGAAAGTAG
As to B22, the binding signal is 9890 PBM fluorescence, median of replicate spots.

B23: Table S2 C row 81 (dsDNA)
DNA 1: AGCCTGACTCTGTGCTGTGGTTGTGAGGCTGGAATG
DNA 2: CATTCCAGCCTCACAACCACAGCACAGAGTCAGGCT
For B23, the binding signal was 440 PBM fluorescence, median of replicate spots.

B24: Table S2 C row 130 (dsDNA)
DNA 1: AATAATAGAGAAGACACCACAGTTGCCATGGTATTA
DNA 2: TAATACCATGGCAACTGTGGTGTCTTCTCTATTATT
Take B24: the binding signal was 414 PBM fluorescence, median of replicate spots.

B25: Table S2 C row 197 (dsDNA)
DNA 1: TTGAACTTAGTAGCAACCACACATGGCCATTATTTG
DNA 2: CAAATAATGGCCATGTGTGGTTGCTACTAAGTTCAA
Take B25: the binding signal was 416 PBM fluorescence, median of replicate spots.

B26: Table S2 C row 153 (dsDNA)
DNA 1: GTAACAACACCAAGGACCACAAATGTGTATGTTGAA
DNA 2: TTCAACATACACATTTGTGGTCCTTGGTGTTGTTAC
B26: the binding signal is 421 PBM fluorescence, median of replicate spots.

B27: Table S2 C row 117 (dsDNA)
DNA 1: ACAGAGCCATTACCTACCACAGAGCTGACGTGAACA
DNA 2: TGTTCACGTCAGCTCTGTGGTAGGTAATGGCTCTGT
As to B27, the binding signal is 437 PBM fluorescence, median of replicate spots.

B28: Table S2 B row 1486 (dsDNA)
DNA 1: TCTGTCGTCCCACTTCCTGCTGCGGATTCCACCTCG
DNA 2: CGAGGTGGAATCCGCAGCAGGAAGTGGGACGACAGA
On to B28, for which the binding signal was 12200 PBM fluorescence, median of replicate spots.

B29: Table S2 B row 3124 (dsDNA)
DNA 1: TCCACATCCTGCTCCTCGGGTTTACGGCGAGGACTC
DNA 2: GAGTCCTCGCCGTAAACCCGAGGAGCAGGATGTGGA
As to B29, the binding signal was 10800 PBM fluorescence, median of replicate spots.

B30: Table S2 C row 82 (dsDNA)
DNA 1: ATTCTAAAATTGGACTGTGGTAAGGGTTGCACAACT
DNA 2: AGTTGTGCAACCCTTACCACAGTCCAATTTTAGAAT
In the case of B30, the binding signal is 420 PBM fluorescence, median of replicate spots.

B31: Table S2 C row 64 (dsDNA)
DNA 1: GACAGAAAGCAAATTAGTGGTAGCCAAGGGCTAGGG
DNA 2: CCCTAGCCCTTGGCTACCACTAATTTGCTTTCTGTC
B31: the binding signal is 439 PBM fluorescence, median of replicate spots.

B32: Table S2 B row 123 (dsDNA)
DNA 1: ACAACCCGGAAGTTGGCGCAGCGCGCTTGCCAATGG
DNA 2: CCATTGGCAAGCGCGCTGCGCCAACTTCCGGGTTGT
B32: the binding signal is 12000 PBM fluorescence, median of replicate spots.

B33: Table S2 C row 13 (dsDNA)
DNA 1: AACTCACTAGTGTTTTGAGGTTTTAATTGACACCAC
DNA 2: GTGGTGTCAATTAAAACCTCAAAACACTAGTGAGTT
As to B33, the binding signal is 420 PBM fluorescence, median of replicate spots.

B34: Table S2 C row 131 (dsDNA)
DNA 1: GAGGCATTATAGAAAACCGCAAGATTTTAGTCTGAG
DNA 2: CTCAGACTAAAATCTTGCGGTTTTCTATAATGCCTC
In the case of B34, the binding signal was 420 PBM fluorescence, median of replicate spots.

B35: Table S2 C row 168 (dsDNA)
DNA 1: AACAGATACTCAAAAACCGCTGGCTGAACACATGGA
DNA 2: TCCATGTGTTCAGCCAGCGGTTTTTGAGTATCTGTT
As for B35, the binding signal is 425 PBM fluorescence, median of replicate spots.

B36: Table S2 C row 84 (dsDNA)
DNA 1: ATCTATTATGAGCCTACCACCATGCTAGACAAGTTG
DNA 2: CAACTTGTCTAGCATGGTGGTAGGCTCATAATAGAT
For the molecule B36, the binding signal was 434 PBM fluorescence, median of replicate spots.

B37: Table S2 C row 152 (dsDNA)
DNA 1: CTTTCATCTCTGACATGTGGCTTCTAAGGGTACACT
DNA 2: AGTGTACCCTTAGAAGCCACATGTCAGAGATGAAAG
For the molecule B37, the binding signal was 421 PBM fluorescence, median of replicate spots.

B38: Table S2 B row 1811 (dsDNA)
DNA 1: GGTTTCGCTTCCGGGTTAGGCGGCCGGAGAAGCGTA
DNA 2: TACGCTTCTCCGGCCGCCTAACCCGGAAGCGAAACC
With B38, the binding signal was 11000 PBM fluorescence, median of replicate spots.

B39: Table S2 B row 2712 (dsDNA)
DNA 1: TGGGGCGAAATCCACTGACTTCCGGCTACGCCGTTG
DNA 2: CAACGGCGTAGCCGGAAGTCAGTGGATTTCGCCCCA
Take B39: the binding signal is 10100 PBM fluorescence, median of replicate spots.
